Test results: US20220411514A1 (published 2022)
Substitutions are numbered along the chain they refer to. Values belong to the binder of their own block, whether it stands above or below them.

Biological target: hGal-3 (UniProt P17931 2-250)
Assay: SPR

Sequence of hGal-3 (P17931 2-250): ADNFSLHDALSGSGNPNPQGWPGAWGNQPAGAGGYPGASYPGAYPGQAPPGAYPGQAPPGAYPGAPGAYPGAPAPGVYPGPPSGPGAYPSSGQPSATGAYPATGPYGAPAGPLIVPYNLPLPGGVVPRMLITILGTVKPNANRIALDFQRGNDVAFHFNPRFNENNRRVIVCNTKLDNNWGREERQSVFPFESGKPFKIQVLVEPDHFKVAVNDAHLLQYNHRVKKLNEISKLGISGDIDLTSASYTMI

Kd: < 1 nM
B1: 4G2.2G6 (antibody, V domains shown)
VH: QIQLVQSGPDLKKPGETVKISCKASGYTFTTYVMSWVKQAPGKDLKWMGWINTHSGVPTYADDFKGRFDFSLETSANTAFLQINNLKNEDTATYFCTRDGNDGDAMDNWGQGTSVTVSS
VL: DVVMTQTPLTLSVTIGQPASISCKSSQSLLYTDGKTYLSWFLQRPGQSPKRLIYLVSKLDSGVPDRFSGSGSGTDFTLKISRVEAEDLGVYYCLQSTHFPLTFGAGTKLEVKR

Kd: 6.09 nM
B2: IMT-001 (antibody, V domains shown)
VH: QVQLVQSGSELKKPGASVKVSCKASGYTFTNYGMNWVRQAPGQGLKWMGWINTNTGEPTYVEEFTGRFVFSLETSVSTAYLQISSLKAEDTAVYFCAPYDNFFAYWGQGTTVTVSS
VL: DIVLTQSPLSLPVTPGEPASISCRSSKSLLYKDGKTYLNWFLQKPGQSPQLLIYLMSTHASGVPDRFSGSGSGTDFTLKISRVEAEDVGVYYCQQLVDYPLTFGGGTKLEIKR

Kd: < 1 nM
B3: 19D9.2E5 (antibody)
chain 1: QIQLVQSGPELKKPGETVKISCKASGYTFTTYGMGWVKQAPGKGLKWMGWINTYSGVPTYADDFKGRFAFSLETSTSTAYLQINNLKNEDMATYFCATPYEYDGAYWGQGTLVTVSA
chain 2: not shown

Kd: 2.06 nM
B4: 15F10.2D6 (antibody, V domains shown)
VH: EVQLVESGGGLVKPGGSLKLSCAASGFAFSSYAMSWVRQTPEKRLEWVATISDGGVYTYYTDHVKGRFTISRDNAEDNLYLQMSHLKSEDTAMYYCVRDGGYWGQGTTLTVSS
VL: DVLMTQTPLSLPVSLGDQASISCRSSQSIVHNNGNTYLEWYLQKPGQSPKLLIYKVSNRFSGVPDRFSGSGSGTDFTLKISRVEAEDLGVYYCFQGSHVPLTFGGGTKLELKR

Kd: 2.49 nM
B5: 7D8.2D8 (antibody, V domains shown)
VH: B4 VH with A28T, V56I, T61P, H63N, E76K, D77N, Y80F
VL: B4 VL with N32S, G105A

Kd: < 1 nM
B6: 3B11.2G2 (antibody, V domains shown)
VH: QIQLVQSGPELKKPGETVKISCKTSGYKFKTYVMSWVKQAPGKALKWMGWINTYSGVPTYADDFKGRFAFSLETSASTAYLEIINLKNEDTATYFCARDGNYGDPMDYWGQGTSVTVSS
VL: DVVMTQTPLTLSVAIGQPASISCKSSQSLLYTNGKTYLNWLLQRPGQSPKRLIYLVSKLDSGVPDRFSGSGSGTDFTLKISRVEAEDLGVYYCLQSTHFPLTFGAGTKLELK

Kd: 11.3 nM
B7: 15G7.2A7 (antibody, V domains shown)
VH: EVQLQQSGPELVKPGASVKISCKASGYTFTDYYMNWVKQSHGKSLEWIGDINPNNGGTNYNQKFKGKATLTVDKSSSTAYMELRSLTSEDSAVYYCTSGYGFPYWGQGTLVTVSA
VL: DIQMNQSPSSLSASLGDTISITCRASQNINIWLSWYQQKPGNIPQLLIYKASNLHTGVPSRFSGSGSGTDFTLTISSLQPEDIATYYCLQGQSYPLTFGAGTKLVMKR

Kd: 5.22 nM
B8: 4A11.2B5 (antibody, V domains shown)
VH: QVQLQQSGPELVKPGASVKISCKASGYSFTNYYIHWVKQRPGQGLEWIGWIYPGSGNTNYNEKFKGKATLTADTSSSTTNMQLSSLTSEDSAVYYCSTAPGGFDVWGSGTTVTVSS
VL: DIVMTQAAFSNPVTLGTSASISCRSSKSLLHSDGITYLYWYLQRPGQSPQLLIYRMSNLASGVPDRFSGSGSGTDFTLRISRVEAEDVGVYYCAQMLEFPLTFGAGTKLELKR

Kd: 4.86 nM
B9: 6H6.2D6 (antibody, V domains shown)
VH: QIQLVQSGPELKKPGETVKISCKASGYTFTTYGMSWVKQAPGKGLKWMAWINTYSGVPTYADDFKGRFAFSLETSASTAYLQINNLTNEDTATYFCARGPYAMDYWGQGTSVTVSS
VL: DIQMTQTTSSLSASLGDRVTISCSASQGISNYLNWYQQKPDGTVKLLIYYTSSLHSGVPSRFSGSGSGTDYSLTISNLEPEDIATYYCQQYSELPYTFGSGTKLEIKR

Kd: < 1 nM
B10: 19B5.2E6 (antibody, V domains shown)
VH: B9 VH with G33A, A49G, F64L, T87K
VL: B9 VL with S30N, T51A, E93Q, L94V

Kd: 4.26 nM
B11: 23H9.2E4 (antibody, V domains shown)
VH: B9 VH with G33A, A49G, F64L, T87K
VL: DIQMTQTTSSLSASLGDRVTISCSASQGINNYLNWYQQKPDGTVKLLIYYASSLHSGVPSRFSGSGSGTDYSLTISNLEPEDIATYYCQQYSQVPYTFGSGTKLEIK

Kd: 2.53 nM
B12: 13G4.2F8 (antibody, V domains shown)
VH: QVQLQQPGAELVKPGASVKLSCKASGYTFTSYWMHWVKQRPGQGLEWIGMIHPNSGSTDYNEKFKNKATLNVDKSSSTAYIQLSSLTSEDSAVYYCTRWGIYYYARDYWGQGTTLTVSS
VL: DIVMTQSQKFMSTSVGERVSITCKASQNVGTNVAWYQQKAGQSLELLIYGASNRHTGVPDRFTGSGSGTDFTLTITNVQSEDMTNYFCEQYSNFPLTFGAGTKLELKR

Kd: 16.5 nM
B13: IMT-006 (antibody, V domains shown)
VH: QVQLVQSGAEVKKPGASVKVSCKASGYSFTNYYMHWVRQAPGQRLEWMGWIYPGSGNTNYNEKFQGRVTITADTSASTAYMELSSLRSEDTAVYYCSTAPGGFDVWGQGTTVTVSS
VL: DIVMTQTPLSLSVTPGQPASISCKSSKSLLHSDGITYLYWYLQKPGQSPQLLIYRMSNLASGVPDRFSGSGSGTDFTLKISRVEAEDVGVYYCAQMLEFPLTFGQGTKLEIKR

Kd: 18.4 nM
B14: 9H2.2H10 (antibody, V domains shown)
VH: QVQLQQPGAELVGPGSSVKLSCKASGYTFTNYWIHWVKQRPLQGLEWIGNIDPSDSETHYNQKFKDKATLTVDKSSSTAYMQLSSLTSEDSAVYYCARHGYYDYWGQGTTLTVSS
VL: DIVMTQSHKFMSTSVGDRVSITCKASQDVSTAVAWYQQKPGQSPKLLIYWASTRHTGVPDRFTGSGSGTDYTLTISSVQAEDLALYYCQQHYTTPLTFGAGTKLELKR
